In publication PMC5959011:

How the values were obtained:
[1] = molecular target: smallest capsid protein (SCP) VP26 (herpes simplex virus type 1 (HSV-1), strain KOS) (UniProt P10219); assay: cryo-EM structure
[2] = molecular target: tegument protein pUL25 (herpes simplex virus type 1 (HSV-1), strain KOS) (UniProt P10209); assay: cryo-EM structure

Substance | stoichiometry N [1] | stoichiometry N [2]
smallest capsid protein (SCP) VP26 (from UniProt P10219 1-112) (natural protein) | 6 | –
tegument protein pUL25 (from UniProt P10209 1-580) (natural protein) | – | 2
